# In patent US20110286981A1 (ZEALAND PHARMA A S, published 2011):
# Key:
# [1] = target: human glucagon-like peptide 1 receptor (human, UniProt P43220 24-463); assay: cell-based or functional assay
# [2] = target: human glucagon receptor (human, UniProt P47871 26-477); assay: cell-based or functional assay
# Sequence of human glucagon-like peptide 1 receptor (P43220 24-463): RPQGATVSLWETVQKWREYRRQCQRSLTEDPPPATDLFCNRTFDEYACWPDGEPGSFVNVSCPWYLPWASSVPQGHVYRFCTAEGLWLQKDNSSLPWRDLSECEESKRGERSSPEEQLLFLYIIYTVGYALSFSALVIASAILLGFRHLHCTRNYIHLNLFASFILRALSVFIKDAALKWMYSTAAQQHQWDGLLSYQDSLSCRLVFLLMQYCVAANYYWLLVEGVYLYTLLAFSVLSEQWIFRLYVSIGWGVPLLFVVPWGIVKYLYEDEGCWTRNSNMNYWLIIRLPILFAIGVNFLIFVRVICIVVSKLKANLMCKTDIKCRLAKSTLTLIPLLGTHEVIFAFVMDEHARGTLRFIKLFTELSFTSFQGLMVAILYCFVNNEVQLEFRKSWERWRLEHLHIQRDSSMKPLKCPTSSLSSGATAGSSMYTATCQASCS
Binder,GLP-1R EC50 (cAMP formation in HEK293 cells expressing human GLP-1-R) [1],GLUR EC50 (cAMP formation in HEK293 cells expressing human Glucagon-R) [2]
H-HSQGTFTSDYSKYLDERRAKDFIEWLLRA-NH2 [L006-0138],0.29 nmol,0.38 nmol
H-HSQGTFTSDYSKYLDSRRAQDFIEWLLSA-NH2 [L006-0090],0.15 nmol,0.22 nmol
H-HSQGTFTSDYSKYLDSRRAKDFIEWLLSA-NH2 [L006-0081],0.14 nmol,0.23 nmol
H-HSQGTFTSDYSKYLDERRAKDFIEWLLAA-NH2 [L006-0136],0.22 nmol,0.33 nmol
H-HSQGTFTSDYSKYLDERRAKDFIDWLLSA-NH2 [L006-0129],0.2 nmol,0.24 nmol

# More lines, now with the values ahead:
GLP-1R EC50 (cAMP formation in HEK293 cells expressing human GLP-1-R) [1],GLUR EC50 (cAMP formation in HEK293 cells expressing human Glucagon-R) [2],Binder
0.16 nmol,0.25 nmol,H-HSQGTFTSDYSKYLDKRRAEDFIKWLLSA-NH2 [L006-0094]
0.53 nmol,0.81 nmol,H-HSQGTFTSDYSKYLDERAAKDFIEWLLSA-NH2 [L006-0108]
0.07 nmol,0.13 nmol,H-HSQGTFTSDYSKYLDERRAKDFIQWLLSA-NH2 [L006-0084]
0.07 nmol,0.1 nmol,H-HSQGTFTSDYSKYLDDRRARDFIDWLLSA-NH2 [L006-0093]
0.16 nmol,0.22 nmol,H-HSQGTFTSDYSKYLDERRAKDFIRWLLSA-NH2 [L006-0128]
0.09 nmol,–,H-HSQGTFTSDYSKYLDERRAQDFIEWLLSA-NH2 [L006-0082]
